# B1: Mc-NDH2 (Methylococcus capsulatus str. Bath) (protein)
# chain: MQRKRNEQPLPRILIIGGGAGGLELATKLGRTLGKKGKAQVTLIDAHPTHIWKPLLHEVAAGTMDVNDDELDYLAQANACHFRFVLGRMSGLDRVAKQVKLAPMTNAAGEEVIPACSYPYDILVIAVGSVCNDFGVPGVAQNCIFLDTTEEAQQFHRRLLEAYMRAHAMGGAKQPGQLDVAIVGGGATGIELSAQLHQATRLLAAYGLDNVKPSDIKIHLIEAAPRLLPELPPRLSESTVKQLLALDVQLHLGERVVEARPDGVLTHTGKFIPATLKVWAAGVKAPDFLAQTDLETNRLNQVVVRQTLQTTRDDHIFAIGDCSACPWPERNTTVPPRAQSAHQQASTAYENILRLLAGKAPVDYRYRDYGSLVSLGKYSTVGNLMGNLLGSVMIEGVIARLVYLSLYKMHQYALFGPLRVGLIMIAHFFSQKLRPKIKLH
# B2: Ec-NDH2 (Escherichia coli K-12) (protein)
# chain: TTPLKKIVIVGGGAGGLEMATQLGHKLGRKKKAKITLVDRNHSHLWKPLLHEVATGSLDEGVDALSYLAHARNHGFQFQLGSVIDIDREAKTITIAELRDEKGELLVPERKIAYDTLVMALGSTSNDFNTPGVKENCIFLDNPHQARRFHQEMLNLFLKYSANLGANGKVNIAIVGGGATGVELSAELHNAVKQLHSYGYKGLTNEALNVTLVEAGERILPALPPRISAAAHNELTKLGVRVLTQTMVTSADEGGLHTKDGEYIEADLMVWAAGIKAPDFLKDIGGLETNRINQLVVEPTLQTTRDPDIYAIGDCASCPRPEGGFVPPRAQAAHQMATCAMNNILAQMNGKPLKNYQYKDHGSLVSLSNFSTVGSLMGNLTRGSMMIEGRIARFVYISLYRMHQIALHGYFKTGLMMLVGSINRVIRPRLKLH
# Legend:
# [1] = substrate: CC1=CC(=O)c2ccccc2C1=O; assay: purified protein, by the assay type; conditions: 25.0 °C
# [2] = substrate: NC(=O)C1=CN([C@@H]2O[C@H](COP(=O)(O)OP(=O)(O)OC[C@H]3O[C@@H](n4cnc5c(N)ncnc54)[C@H](O)[C@@H]3O)[C@@H](O)[C@H]2O)C=CC1; assay: purified protein, by the assay type; conditions: 25.0 °C
Protein,Km [1] [µM],kcat [1] [s⁻¹],Km [2] [µM],kcat [2] [s⁻¹]
B1,12.9 ± 5.4,3.9 ± 0.4,9.5 ± 5.3,9.08 ± 1.1
B2,15.6 ± 8.5,107 ± 13.1,1.7 ± 1.09,43.6 ± 4
